Experimental data as given in patent US20080249606.

T1: endostatin exposed to Ellagic acid, P39060
T1 chain: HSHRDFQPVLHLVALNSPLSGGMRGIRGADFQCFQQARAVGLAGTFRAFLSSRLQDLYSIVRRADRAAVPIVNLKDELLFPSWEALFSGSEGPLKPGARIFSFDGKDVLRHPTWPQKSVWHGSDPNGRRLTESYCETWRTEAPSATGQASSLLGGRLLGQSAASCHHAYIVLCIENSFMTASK

B1: tissue-type plasminogen activator (tPA, Actilyse, Boehringer-Ingelheim) (protein)
chain: SYQVICRDEKTQMIYQQHQSWLRPVLRSNRVEYCWCNSGRAQCHSVPVKSCSEPRCFNGGTCQQALYFSDFVCQCPEGFAGKCCEIDTRATCYEDQGISYRGTWSTAESGAECTNWNSSALAQKPYSGRRPDAIRLGLGNHNYCRNPDRDSKPWCYVFKAGKYSSEFCSTPACSEGNSDCYFGNGSAYRGTHSLTESGASCLPWNSMILIGKVYTAQNPSAQALGLGKHNYCRNPDGDAKPWCHVLKNRRLTWEYCDVPSCSTCGLRQYSQPQFRIKGGLFADIASHPWQAAIFAKHRRSPGERFLCGGILISSCWILSAAHCFQERFPPHHLTVILGRTYRVVPGEEEQKFEVEKYIVHKEFDDDTYDNDIALLQLKSDSSRCAQESSVVRTVCLPPADLQLPDWTECELSGYGKHEALSPFYSERLKEAHVRLYPSSRCTSQHLLNRTVTDNMLCAGDTRSGGPQANLHDACQGDSGGPLVCLNDGRMTLVGIISWGLGCGQKDVPGVYTKVTNYLDWIRDNMRP
B2: factor XII (FXII, Calbiochem 233490) (protein)
chain: IPPWEAPKEHKYKAEEHTVVLTVTGEPCHFPFQYHRQLYHKCTHKGRPGPQPWCATTPNFDQDQRWGYCLEPKKVKDHCSKHSPCQKGGTCVNMPSGPHCLCPQHLTGNHCQKEKCFEPQLLRFFHKNEIWYRTEQAAVARCQCKGPDAHCQRLASQACRTNPCLHGGRCLEVEGHRLCHCPVGYTGAFCDVDTKASCYDGRGLSYRGLARTTLSGAPCQPWASEATYRNVTAEQARNWGLGGHAFCRNPDNDIRPWCFVLNRDRLSWEYCDLAQCQTPTQAAPPTPVSPRLHVPLMPAQPAPPKPQPTTRTPPQSQTPGALPAKREQPPSLTRNGPLSCGQRLRKSLSSMTRVVGGLVALRGAHPYIAALYWGHSFCAGSLIAPCWVLTAAHCLQDRPAPEDLTVVLGQERRNHSCEPCQTLAVRSYRLHEAFSPVSYQHDLALLRLQEDADGSCALLSPYVQPVCLPSGAARPSETTLCQVAGWGHQFEGAEEYASFLQEAQVPFLSLERCSAPDVHGSSILPGMLCAGFLEGGTDACQGDSGGPLVCEDQAAERRLTLQGIISWGSGCGDRNKPGVYTDVAYYLAWIREHTVS

How the values were obtained:
[1] = molecular target: lysozyme exposed to Microlance-3 injection needles, P00698
Chain of lysozyme exposed to Microlance-3 injection needles, P00698 (P00698 19-147): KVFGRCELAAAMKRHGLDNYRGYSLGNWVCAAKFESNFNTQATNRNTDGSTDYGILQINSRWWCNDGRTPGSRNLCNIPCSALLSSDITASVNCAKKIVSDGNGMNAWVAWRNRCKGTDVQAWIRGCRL

[2] = molecular target: T1, endostatin exposed to Ellagic acid, …
[3] = molecular target: endostatin exposed to kaolin, P39060
[4] = molecular target: Gelofusin mixed with lipopolysaccharide (LPS)
[5] = molecular target: glycated haemoglobin (Hb-AGE), P69905
Chain of glycated haemoglobin (Hb-AGE), P69905 (P69905 2-142, chain 1 of 2): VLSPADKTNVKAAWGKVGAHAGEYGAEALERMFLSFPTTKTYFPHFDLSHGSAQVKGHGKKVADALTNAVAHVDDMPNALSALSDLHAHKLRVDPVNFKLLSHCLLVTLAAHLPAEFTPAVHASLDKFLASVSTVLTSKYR
Chain of glycated haemoglobin (Hb-AGE), P69905 (chain, as listed by the source, chain 2 of 2): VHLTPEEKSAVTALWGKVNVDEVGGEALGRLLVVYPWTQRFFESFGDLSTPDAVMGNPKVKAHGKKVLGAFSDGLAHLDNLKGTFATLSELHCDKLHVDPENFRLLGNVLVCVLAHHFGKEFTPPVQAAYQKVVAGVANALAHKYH

[6] = molecular target: BSA exposed to kaolin, P02769
Chain of BSA exposed to kaolin, P02769 (P02769 25-607): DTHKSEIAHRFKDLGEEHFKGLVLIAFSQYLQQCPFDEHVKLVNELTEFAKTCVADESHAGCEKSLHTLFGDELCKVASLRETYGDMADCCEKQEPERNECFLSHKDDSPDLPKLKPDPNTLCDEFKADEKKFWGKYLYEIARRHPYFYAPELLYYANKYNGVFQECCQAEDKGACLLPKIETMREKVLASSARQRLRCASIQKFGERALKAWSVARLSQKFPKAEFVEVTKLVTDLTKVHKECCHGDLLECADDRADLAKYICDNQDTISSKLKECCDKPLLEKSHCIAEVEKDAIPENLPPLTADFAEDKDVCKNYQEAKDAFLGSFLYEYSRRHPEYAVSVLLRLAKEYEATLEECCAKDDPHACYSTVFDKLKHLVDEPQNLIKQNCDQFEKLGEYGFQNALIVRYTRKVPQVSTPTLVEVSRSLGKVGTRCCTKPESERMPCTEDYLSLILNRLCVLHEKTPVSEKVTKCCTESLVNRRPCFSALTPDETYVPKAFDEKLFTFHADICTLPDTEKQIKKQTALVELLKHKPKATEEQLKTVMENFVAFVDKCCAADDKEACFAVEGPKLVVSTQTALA

[7] = molecular target: endostatin, a recombinantly produced fragment of human collagen XVIII (EntreMed), P39060
[8] = molecular target: endostatin incubated overnight with DXS500k, P39060
[9] = molecular target: BSA exposed to Ellagic acid, P02769
Chain of BSA exposed to Ellagic acid, P02769 (P02769 25-607): as above

[10] = molecular target: BSA incubated overnight with dextran sulphate 500,000 Da (DXS500k), P02769
Chain of BSA incubated overnight with dextran sulphate 500,000 Da (DXS500k), P02769 (P02769 25-607): as above

[11] = molecular target: Bovine serum albumin (BSA), P02769
Chain of Bovine serum albumin (BSA), P02769 (P02769 25-607): as above

[12] = molecular target: Gelofusin mixed with kaolin
[13] = molecular target: Gelofusin (Braun Melsungen AG)

Protein	Plg-activation assay (plasmin substrate S-2251) [1]	chromogenic factor XII/prekallikrein activation assay [2]	FXII activation (conversion of Chromozym-PK by kallikrein) [3]	chromogenic factor XII/prekallikrein activation assay with active enzyme kallikrein read-out [4]	FXII activation [5]	FXII activation (conversion of Chromozym-PK by kallikrein) [6]	FXII activation (conversion of Chromozym-PK by kallikrein) [7]	FXII activation (conversion of Chromozym-PK by kallikrein) [8]	chromogenic factor XII/prekallikrein activation assay [9]	FXII activation (conversion of Chromozym-PK by kallikrein) [10]	FXII activation (conversion of Chromozym-PK by kallikrein) [11]	chromogenic factor XII/prekallikrein activation assay with active enzyme kallikrein read-out [12]	chromogenic factor XII/prekallikrein activation assay with active enzyme kallikrein read-out [13]
B1	When the plasma protein lysozyme is exposed to the stainless steel of a Microlance-3 injection needle, tPA activating properties are induced												
B2		exposure of the proteins to the polyphenol surface induces increased capacity to activate factor XII/prekallikrein	combinations of surface and protein cofactor results in FXII and subsequent prekallikrein activity	enhanced activity is seen when Gelofusin is mixed with kaolin or LPS	Presence of cross-β structure conformation in Hb-AGE was conformed by tPA binding, tPA activation, FXII activation	combinations of surface and protein cofactor results in FXII and subsequent prekallikrein activity	Neither BSA or endostatin alone, nor kaolin or DXS500k alone are efficient activators of FXII	combinations of surface and protein cofactor results in FXII and subsequent prekallikrein activity	exposure of the proteins to the polyphenol surface induces increased capacity to activate factor XII/prekallikrein	combinations of surface and protein cofactor results in FXII and subsequent prekallikrein activity	Neither BSA or endostatin alone, nor kaolin or DXS500k alone are efficient activators of FXII	enhanced activity is seen when Gelofusin is mixed with kaolin or LPS	Gelofusin alone does not stimulate factor XII/prekalikrein activation
